From paper PMC10132808, “Stimulation of the catalytic activity of the tyrosine kinase Btk by the adaptor protein Grb2” (eLife, 2023) come the findings set out here.

The test concerns the target T1, Grb2 labeled with Alexa Fluor 647 (UniProt P62993 1-217, Alexa Fluor 647 C2 maleimide on a surface cysteine (at most one per molecule; about 17% labeling overall)).
T1 construct: The labeled cysteine is not identified; Only about 17% of the preparation carries the dye; also called Grb2-AlexaFluor647; source: E. coli BL21(DE3), purified (HisTrap, TEV cleavage, gel filtration), labeled by maleimide coupling; not shown: His6, N-terminal, cleaved
Briefly: TIRF microscopy of recruitment to supported-lipid bilayers; N-terminally His-tagged Btk constructs tethered to bilayers with 4% DGS-NTA(Ni), 96% DOPC, washed after equilibration; Grb2-Alexa Fluor 647 added; fluorescence at the membrane over time. The conditions noted are these: both partners purified.

T1 sequence (P62993 whole entry): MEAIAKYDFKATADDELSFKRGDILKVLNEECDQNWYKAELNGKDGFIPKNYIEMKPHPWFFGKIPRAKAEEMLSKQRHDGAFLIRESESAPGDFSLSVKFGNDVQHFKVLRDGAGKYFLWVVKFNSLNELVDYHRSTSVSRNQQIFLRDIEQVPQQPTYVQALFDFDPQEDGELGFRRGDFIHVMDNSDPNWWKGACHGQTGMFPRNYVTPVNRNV

B1: His-tagged Btk proline-rich linker (domain or fragment, human, UniProt Q06187 171-214, looked up)
chain: RNGSLKPGSSHRKTKKPLPPTPEEDQILKKPLPPEPAAAPVSTS
notes: Btk, human, residues 171-214 (proline-rich linker between the PH-TH module and the SH3 domain); A SUMO module may also be kept, because the protease step was left out; also called the isolated proline-rich linker; source: E. coli BL21(DE3), purified (HisTrap, gel filtration; protease step left out); not shown: His6, N-terminal, kept
Take B1: the binding result is listed as “binds”.
